This is an account of results in patent US8236753 (BRIGHAM AND WOMEN S HOSPITAL, dated 2012).

Sequences and labels used below:
B1: wild-type RAP-D3 (third domain of the receptor-associated protein, residues 216-323) (ligand, human)
chain: GAEFEEPRVIDLWDLAQSANLTDKELEAFREELKHFEAKIEKHNHYQKQLEIAHEKLRHAESVGDGERVSRSREKHALLEGRTKELGYTVKKHLQDLSGRISRARHNEL
notes: range 216-323; Expressed in E. coli as a GST fusion, released by TEV protease, monomer isolated by size exclusion; The range 216-323 counts on the mature RAP protein, not on the precursor; also called RAP-D3 WT; RAPD3_WT
B2: LA3-4 module pair of the LDLR (LDL receptor type-A repeats 3 and 4) (receptor)
chain: not shown
notes: domain: LA3-4 module pair; also called two-repeat fragment of the LDL receptor; LA3-4 repeat pair
B3: RAP-D3 [H268F/H290F] (ligand)
chain: B1 chain with H54F, H76F
notes: also called RAPD3_H268, 290F
B4: RAP-D3 [H257F/H259F] (ligand)
chain: B1 chain with H43F, H45F
notes: The entry is printed as ENLYFQG followed by the 108 residues; also called RAPD3_H257, 259F; RAP-D3 H257,259F
B5: RAP-D3-quad (RAP-D3 H257F/H259F/H268F/H290F) (ligand)
chain: B1 chain with H43F, H45F, H54F, H76F
notes: also called RAP-D3 Quad H:F; RAPD3_H257, 259, 268, 290F

Changes are numbered by the printed parent chain. Names may count otherwise.

The target in assay [1] is B2. The assay is described as follows: ITC, RAP-D3 titrated into LA3-4, 20 mM HEPES pH 7.3, 5 mM CaCl2, 25 C, 50 mM NaCl. Set-up: ΔH: unit not given here. As for the experimental part:
(§1) RAP-D3 titrations were performed in 20 mM HEPES, pH 7.3, 50-150 mM NaCl, 5 mM CaCl_2 at 25° C. using a VP-ITC calorimeter (MicroCal Inc., Northampton, Mass.) in a 1.3 mL reaction vessel. A RAP-D3 stock solution (132-178 μM) was added in 6-8 μL increments to LA3-4 (20-25 μM). Calorim-

The target in assay [2] is B2. The assay is described as follows: ITC, RAP-D3 titrated into LA3-4, 20 mM HEPES pH 7.3, 5 mM CaCl2, 25 C, 150 mM NaCl. Set-up: ΔH: unit not given here. As for the experimental part: as §1
A general note: Isothermal titration calorimetry measures the heat released or taken up as one component is titrated into another.

Assay [3] deals with B1. As to the kind of experiment: ITC, RAP-D3 titrated into LA3-4, 20 mM HEPES pH 7.3, 5 mM CaCl2, 25 C, 50 mM NaCl. Set-up: ΔH: unit not given here. The method, then:
as §1

For assay [4], the target named is B1. The assay is described as follows: ITC, RAP-D3 titrated into LA3-4, 20 mM HEPES pH 7.3, 5 mM CaCl2, 25 C, 150 mM NaCl. On the set-up: ΔH: unit not given here. The method, then: as §1
The target of assay [5] is B2. As to the kind of experiment: ITC at neutral pH. The method, then: as §1
Assay [6] addresses B2. The assay is described as follows: ITC, RAP-D3 titrated into LA3-4, 20 mM HEPES pH 7.3, 5 mM CaCl2, 25 C, 100 mM NaCl. On the set-up: ΔH: unit not given here. The method, then: as §1
Assay [7] concerns the target B2. The assay is described as follows: ITC, RAP-D3 titrated into LA3-4, 20 mM HEPES pH 7.3, 5 mM CaCl2, 25 C, 100 mM NaCl; 100 mM NaCl. As for the experimental part:
as §1

With B1, the ΔH in assay [1] was -9.1; in assay [2] it was -6.8.
Regarding B2, the Kd in assay [3] came out at 480 nM; in assay [4] it was 1170 nM.
Take B3: the “fold difference in affinity against wild-type RAP-D3” value in assay [5] was no more than 2 fold. Further, in assay [1], the Kd is 1160 nM and the ΔH was -9.3.
On the same counts, the results for B4 are no more than 2 fold, 850 nM and -8.6.
Take B5: in assay [5], the “fold difference in affinity against wild-type RAP-D3” value is no more than 2 fold. In addition, in assay [6], the Kd is 850 nM and the ΔH was -5.4. The Ka in assay [7] was found to be 1.2e+06 M⁻¹.

Usually Kd stands for the concentration at which binding is half-saturated.
